± gives the uncertainty stated by the source.
Assay: protein stability index of a GFP-peptide fusion (yeast GPS) (PSI 1-4); higher = more stable; sorted into four equal gates, so the index is relative within each strain
Conditions: ubr1∆
In short: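 Tiled 17-residue peptides from yeast proteins were fused downstream of GFP on a plasmid that also expresses Cherry, and the pooled library was carried in yeast. Mid-log cultures grown in leucine-free medium were sorted into four equal gates by GFP/Cherry fluorescence ratio. Plasmids from each gate were PCR-amplified and Illumina-sequenced, and reads were assigned to strains by barcodes. Each peptide's protein stability index is the sum, over gates, of the gate's read frequency multiplied by its gate number.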

Row | Sequence | protein stability index
1 | AGLEITSDNLLTITKAA [RPP1B] | 2.65 ± 0.046
2 | AGMTTIVRDLDRPGSKF [RPL3] | 3.15 ± 0.11
3 | AGNSQITSGGFLLKAYI [SRB5] | 2.92 ± 0.11
4 | AHAIDQMTWRQWLNNAL [POP8] | 2.58 ± 0.04
5 | AHIEKQSLDTIGGSDAA [RPO21] | 2.95 ± 0.095
6 | AHLWQKIHESIVFDICQ [PRP8] | 2.39 ± 0.098
7 | AIFPYQDPIFGSVLLTL [ECM29] | 1.45 ± 0.044
8 | AIIYQRGKDGKLHVAAK [YGL100W/SEH1] | 3.02 ± 0.18
9 | AIKDKLEQDLHFENAKV [YIL149C/MLP2] | 3.16 ± 0.079
10 | AIMNCADNSGARNLYII [RPL23A] | 3.1 ± 0.17
11 | AINLMGVKNNLLTPKSG [RPO31] | 2.63 ± 0.11
12 | AIPNPEDVVAISSRTFG [RPS0A] | 2.94 ± 0.043
13 | AIRADPAFKPTEKKFTK [RPL5] | 3.2 ± 0.24
14 | AIRKAPHNSKSLGFLQQ [RPN3] | 2.54 ± 0.13
15 | AISQSLRDESLTVDNLS [PRE5] | 3.32 ± 0.06
16 | AISTGNWSLKRFKMERA [RET1] | 1.68 ± 0.077
17 | AITHMIDALGTEFSKND [SCL1] | 2.61 ± 0.031
18 | AIVLPMKRADKFKDMGI [RPT5] | 3.09 ± 0.16
19 | AKEKERMLEEAIDHLKA [YIL149C/MLP2] | 3.01 ± 0.049
20 | AKEVKVLYHTSGAITFV [PRP8] | 2.72 ± 0.068
21 | AKGKSGVQTAYIDYSSK [RRP40] | 2.91 ± 0.24
22 | AKIDVMLTIARLGFFYN [RPN7] | 3.14 ± 0.094

Row | Sequence | protein stability index
23 | AKLSDTLIIDQVRKDLG [NUT1] | 2.85 ± 0.09
24 | AKNFSAQKRVVSYMMPS [SRB8] | 1.96 ± 0.13
25 | AKQAKIRAGEFDVVLTT [SNF2] | 3.23 ± 0.11
26 | AKRAQFRKKRKFELGRQ [RPS8A] | 3.02 ± 0.081
27 | AKTFGASVRIFLYPSNI [RPL33A] | 2.59 ± 0.054
28 | ALDFRNVSIVANYIKER [SMC4] | 1.82 ± 0.058
29 | ALECRLASAIASGLLRA [CSN12] | 1.94 ± 0.075
30 | ALGMMTRISSQFEKSRK [RET1] | 1.08 ± 0.06
31 | ALKDPQTDADRVKDPQW [RIP1] | 3.6 ± 0.16
32 | ALLIAGHDADDGYQLFH [PUP2] | 2.66 ± 0.13
33 | ALMRCSFEETVEILFEA [RPO21] | 2.85 ± 0.069
34 | ALRALQENGTIFRGSLI [YDL088C/ASM4] | 1.53 ± 0.092
35 | ALSAYHKVQTKLTRELE [RPS7B] | 2.58 ± 0.043
36 | ALSGNEGDASPFTDITV [RPB2] | 3.1 ± 0.15
37 | ALTTIKGVGRRYSNLVC [RPS18A] | 2.62 ± 0.077
38 | AMEFIFGNSLICEDPET [SMC2] | 1.88 ± 0.049
39 | AMNDKDLTMGQVGERIK [RPO21] | 3.08 ± 0.099
40 | ANEQLKLFNRIVERETN [CSN12] | 2.81 ± 0.15
41 | ANGGSTIISPHKDIPEE [DSN1] | 2.88 ± 0.28
42 | ANHDDQDDIDEMVENSS [SRP68] | 3.13 ± 0.07
43 | ANIFRIHSKSMSVERGI [RPT1] | 2.9 ± 0.13
44 | ANLLQINVDNDPFFAQS [YML103C/NUP188] | 2.93 ± 0.094

Row | Sequence | protein stability index
45 | ANNDINSLLSNFNDIPP [YDL088C/ASM4] | 3.13 ± 0.14
46 | ANNGAAFSPLTTTRIQS [MED2] | 2.66 ± 0.044
47 | ANNYSSNIGNNSINNNN [YDL088C/ASM4] | 2.76 ± 0.054
48 | ANPKKLALMTAHSLSPK [CDC53] | 2.32 ± 0.036
49 | ANVELTPSNIRSLCEVL [RPC34] | 2.02 ± 0.07
50 | APGKVELAINLIRFDES [SMC2] | 2.83 ± 0.08
51 | APIKKIIERYIKSKADA [PRP8] | 3.13 ± 0.11
52 | APLKALVQEQVREFQRR [BRR2] | 1.26 ± 0.13
53 | APLNFNPIIENNVDNKY [SSN2] | 2.88 ± 0.046
54 | APLNLEIPAYEFDGDKV [RIP1] | 2.72 ± 0.077
55 | APNHSPEIDNLDDLVVL [RRP6] | 2.71 ± 0.088
56 | APPQRPRFNRENKVSPA [RPS26A] | 2.95 ± 0.12
57 | AQANNNNNGLPQNGNIN [GAL11] | 2.98 ± 0.038
58 | AQAQAQAQAQAHAQHQP [GAL11] | 3.032 ± 0.024
59 | AQEDVPYLLPYILEAEA [QCR7] | 1.86 ± 0.038
60 | AQFRVPRYHSKNSFQQA [SWP82] | 2.62 ± 0.047
61 | AQKYASIVGVDLSSAAS [FAS2] | 1.75 ± 0.062
62 | AQNQGMFGAKPAGTSLF [YGL172W/NUP49] | 2.37 ± 0.04
63 | AQNVPMNIIQQQQQQNT [GAL11] | 2.46 ± 0.029
64 | AQSRNVEIEKRILKLGT [YGR119C/NUP57] | 3.34 ± 0.078
65 | AQSSHIRAIRKVISEIL [RPS1A] | 1.748 ± 0.015
66 | AQSVGCRVDFKNPHDII [RPL12A] | 2.32 ± 0.1

Row | Sequence | protein stability index
67 | AQYCYKNGLYQEAFKIY [SRP72] | 3.25 ± 0.059
68 | ARGTIEIVSDVKVVDAG [RPP0] | 1.77 ± 0.095
69 | ARKELPIFDYIHIDALE [SIR3] | 2.5 ± 0.047
70 | ARNVQVHQEPYVFNARP [RPS0A] | 3.06 ± 0.063
71 | ARQQVAQQLRNQQQQQQ [GAL11] | 2.92 ± 0.076
72 | ARRLKNRAARDRRAQRV [RPL19A] | 3.17 ± 0.062
73 | ARSIDVEKGVNPTKSKE [ECM29] | 3.2 ± 0.29
74 | ARTATVSKKWAAAGVCE [RPL14B] | 2.72 ± 0.066
75 | ARTIKATLPYIKQDIPI [RPB2] | 2.74 ± 0.072
76 | ARYVIATSTKVSVEGVN [RPL6A] | 1.27 ± 0.034
77 | ASAGSKEGASTNWDDHA [YMR153W/NUP53] | 3.42 ± 0.11
78 | ASDESLLRYGGAFTIAL [RPN2] | 3.34 ± 0.083
79 | ASLADVMSIESLVEVVF [FAS1] | 2.97 ± 0.062
80 | ASLKHDNETKAMLINLI [RPN3] | 2.77 ± 0.29
81 | ASPSAHTSSSDGNNEIF [RPN4] | 3 ± 0.063
82 | ASSAVMNRRKIAMPKRR [YLR335W/NUP2] | 1.16 ± 0.11
83 | ASSPIILEEGSSGMGAF [RPN10] | 3.14 ± 0.059
84 | ASTGSGKTLAFVIPILI [PRP28] | 3.09 ± 0.1
85 | ASVGDILKTLERSICAL [YML031W/NDC1] | 2.64 ± 0.058
86 | ATALQTCAGGRLFNVVV [SMC2] | 2.12 ± 0.15
87 | ATASAIAATAVASLVLA [RPL4A] | 1.88 ± 0.082
88 | ATFLLTDIKDTLTKISM [MCD1] | 3.17 ± 0.08

Row | Sequence | protein stability index
89 | ATKDNELNVKHVKQCQE [SMC2] | 3.32 ± 0.05
90 | ATQMTLNTFHFAGVASK [RPO21] | 2.32 ± 0.14
91 | ATSVESVDIGVETILSG [FAS2] | 3.1 ± 0.069
92 | AVDHRRQNRNQEIFDAN [RPL13A] | 3.34 ± 0.046
93 | AVEQRKKEKLDSGEVDA [DPB4] | 3.27 ± 0.1
94 | AVFKIVLQPLLPRELPK [SNU114] | 2.18 ± 0.074
95 | AVHNGGRKHVAALRTVK [RPL9A] | 2.88 ± 0.19
96 | AVLKKIQSKAVEQGYED [YCG1] | 3.07 ± 0.084
97 | AVSTIASISLAIGYPTL [RPP0] | 2.15 ± 0.049
98 | AVSVANGFMHAGTTDNS [RPN2] | 1.28 ± 0.067
99 | AVVVRGRYAGKKVVIVK [RPL27A] | 2.81 ± 0.082
100 | AYFMVGAMGLLSSAGAK [RIP1] | 2.34 ± 0.091
101 | AYGNWFNGLKPLIQNSM [PRP8] | 3.13 ± 0.049
102 | AYLLLNAAGNTPDATKI [RPP2A] | 2.49 ± 0.039
103 | AYPGKLICPQYGTENKD [CSL4] | 1.9 ± 0.078
104 | AYSPKQDEQKHNENENS [RPO21] | 2.68 ± 0.061
105 | CANKYMTTVSGRDAFHL [RPL10] | 1.92 ± 0.1
106 | CASIPIAIIKDTSDIIV [RRP46] | 1.6 ± 0.04

Reference: the supplement of paper PMC9732359
